Results on 22 substances are retold here after patent USRE46170E1, “Insulin derivatives” (Novo Nordisk A/S, priority 2005, dated 2016).

Data set [1] in a line: Hydrophobicity (hydrophobic index) relative to human insulin by isocratic RP-HPLC. The format is physicochemical. The following applies: LiChrosorb RP18 column, isocratic elution at 40° C., sodium phosphate buffer pH 7.3/acetonitrile. As for the experimental part:
The elution was monitored by following the UV absorption of the eluate at 214 nm. Void time, t0, was found by injecting 0.1 mM sodium nitrate.

The target of a further data set is human insulin receptor (Homo sapiens, UniProt P06213). As to the kind of experiment: Insulin receptor binding, SPA microtiterplate antibody capture assay. The following applies: purified recombinant human insulin receptor - exon 11; A14 Tyr[125I]-human insulin tracer; 16 hours incubation. How it is done:
SPA-PVT antibody-binding beads, anti-mouse reagent (Amersham Biosciences, Cat No. PRNQ0017) were mixed with 25 ml of binding buffer (100 mM HEPES pH 7.8; 100 mM sodium chloride, 10 mM MgSO4, 0.025% Tween-20). […] A total of 100 μl was then added and a dilution series is made from appropriate samples. To the dilution series was then added 100 μl of reagent mix and the samples were incubated for 16 hours while gently shaken. The phases were the then separated by centrifugation for 1 min and the plates counted in a Topcounter. The binding data were fitted using the nonlinear regression algorithm in the GraphPad Prism 2.01 (GraphPad Software, San Diego, Calif.).

Chain of human insulin receptor (P06213 28-746 isoform P06213-2 limits assumed): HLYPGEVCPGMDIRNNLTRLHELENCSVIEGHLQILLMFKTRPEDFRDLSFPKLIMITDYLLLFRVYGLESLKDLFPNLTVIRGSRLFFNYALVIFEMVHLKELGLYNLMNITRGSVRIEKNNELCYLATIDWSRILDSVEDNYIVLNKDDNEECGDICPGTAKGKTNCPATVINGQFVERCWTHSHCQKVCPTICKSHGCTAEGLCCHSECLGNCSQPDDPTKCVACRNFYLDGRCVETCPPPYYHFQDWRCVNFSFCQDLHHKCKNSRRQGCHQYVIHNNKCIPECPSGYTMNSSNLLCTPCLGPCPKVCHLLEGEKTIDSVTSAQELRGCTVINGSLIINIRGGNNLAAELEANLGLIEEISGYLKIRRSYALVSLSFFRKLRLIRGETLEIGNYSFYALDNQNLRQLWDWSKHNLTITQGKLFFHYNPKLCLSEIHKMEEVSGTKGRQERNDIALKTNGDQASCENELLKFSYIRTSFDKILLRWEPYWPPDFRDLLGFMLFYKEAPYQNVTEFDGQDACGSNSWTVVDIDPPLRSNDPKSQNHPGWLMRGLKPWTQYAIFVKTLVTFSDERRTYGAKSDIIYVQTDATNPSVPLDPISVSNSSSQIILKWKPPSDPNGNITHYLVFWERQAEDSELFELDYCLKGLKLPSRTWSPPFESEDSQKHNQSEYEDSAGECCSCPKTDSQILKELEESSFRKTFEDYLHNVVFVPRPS
Chain of human insulin receptor (P06213 763-1382 partner limits assumed): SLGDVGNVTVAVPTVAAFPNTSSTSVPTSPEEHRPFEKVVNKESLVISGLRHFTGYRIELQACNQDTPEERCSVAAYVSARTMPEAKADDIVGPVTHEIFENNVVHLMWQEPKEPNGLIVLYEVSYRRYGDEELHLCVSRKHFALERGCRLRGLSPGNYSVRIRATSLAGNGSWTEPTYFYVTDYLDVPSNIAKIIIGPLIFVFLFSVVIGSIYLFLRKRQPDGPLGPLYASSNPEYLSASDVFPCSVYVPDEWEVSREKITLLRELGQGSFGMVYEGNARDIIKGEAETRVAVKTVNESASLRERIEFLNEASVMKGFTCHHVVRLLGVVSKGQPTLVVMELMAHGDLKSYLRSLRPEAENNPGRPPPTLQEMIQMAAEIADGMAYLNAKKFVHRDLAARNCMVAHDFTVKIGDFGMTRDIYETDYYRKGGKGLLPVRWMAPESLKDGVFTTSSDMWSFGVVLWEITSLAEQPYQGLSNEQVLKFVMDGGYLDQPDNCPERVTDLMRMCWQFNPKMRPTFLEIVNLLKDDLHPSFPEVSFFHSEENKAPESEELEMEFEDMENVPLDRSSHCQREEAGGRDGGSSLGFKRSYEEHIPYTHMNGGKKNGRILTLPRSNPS

Take “N^εB29-4-{[(2-Carboxyethyl)-(15-carboxypentadecanoyl)amino]methyl}benzoyl)-γ-L-glutamyl desB30 human insulin [Example 20]”: in data set [1], the “k′rel” value is 0.399.
Consider “N^εB29-10-(4-Carboxyphenoxy)decanoyl beta-Asp desB30 insulin [Example 25]”, for which the “Receptor binding (% of human insulin)” value with human insulin receptor was 42 % of human insulin. Besides, in data set [1], the “k′rel” value is on record as 0.348.
For the substance “N^εB29-10-(4-carboxyphenylsulfanyl)decanoyl-γ-L-glutamyl desB30 human insulin [Example 23]”, in the data set with human insulin receptor, the “Receptor binding (% of human insulin)” value is 101 % of human insulin. The “k′rel” value in data set [1] is on record as 0.475.
The matching figures for “N^εB29-11-(4-Carboxy-phenoxy) undecanoyl γ-L-glutamyl desB30 insulin [Example 26]”: 55 % of human insulin and 0.482.
Regarding “N^εB29-(3-Carboxy-4-(14-carboxytetradecyloxy)benzoyl) desB30 human insulin [Example 12]”, in data set [1], the “k′rel” value is 1.51.
The same measure, in the same setting: under “N^εB29-(3-Carboxy-5-(14-carboxytetradecyloxy)benzoyl) desB30 human insulin [Example 13]” stands 1.175.
For “N^εB29-(3-Carboxy-5-hexadecandioylaminobenzoyl) des(B30)insulin [Example 9]”, the “Receptor binding (% of human insulin)” value in the data set with human insulin receptor is reported as 12 % of human insulin. In addition, the “k′rel” value in data set [1] is reported as 1.7.
As to “N^εB29-(3-Carboxy-5-octadecandioylaminobenzoyl) des(B30) human insulin [Example 10]”, the “Receptor binding (% of human insulin)” value with human insulin receptor was 19 % of human insulin. Moreover, in data set [1], the “k′rel” value came to 2.97.
Consider “N^εB29-(3-carboxy-4-hexdecandioylaminobenzoyl) desB30 human insulin [Example 22]”, for which, in data set [1], the “k′rel” value is 1.075.
Consider “N^εB29-[3-Carboxy-5-(octadecandioyl-N-carboxyethylglycin)aminobenzoyl] desB30 human insulin [Example 15]”, for which the “k′rel” value in data set [1] was found to be 0.662.
“N^εB29-[(5-{[(2-Carboxyethyl)-(15-carboxypentadecanoyl)amino]methyl}furan-2-carbonyl)desB30 human insulin [Example 5]”: the “Receptor binding (% of human insulin)” value with human insulin receptor is listed as 13 % of human insulin. For the same substance, the “k′rel” value in data set [1] is 1.19.
Regarding “N^εB29-{4-Carboxy-4-[10-(4-carboxy-phenoxy)-decanoylamino]-butyryl}desB30 human insulin [Example 14]”, in the data set with human insulin receptor, the “Receptor binding (% of human insulin)” value is given as 46 % of human insulin. The “k′rel” value in data set [1] is reported as 0.388.
“N^εB29-{4-[2-(4-carboxymethylphenyl)ethyl]phenyl}acetyl-γ-L-glutamyl desB30 human insulin [Example 21]”: the “k′rel” value in data set [1] was found to be 0.291.
As to “N^εB29-ω-carboxypentadecanoyl-(4-aminomethylbenzoyl)-γ-L-glutamyl desB30 human insulin [Example 18]”, the “k′rel” value in data set [1] is listed as 1.18.
On to “N^εB29-ω-carboxypentadecanoyl-γ-L-glutamyl 4-aminomethyl-benzoyl) desB30 human insulin [Example 11]”, for which the “Receptor binding (% of human insulin)” value with human insulin receptor was 14 % of human insulin. Besides, the “k′rel” value in data set [1] worked out at 1.12.
“N^εB29{3-[(3,5-Bis-carboxymethoxy-benzyl)-(15-carboxypentadecanoyl)amino]-propionyl desB30 human insulin [Example 16]”: the “k′rel” value in data set [1] came to 0.45.
As to “N^εB29—N—(HOOC(CH2)15CO)—N-(carboxyethyl)-CH2-para-C6H4CO] desB30 human insulin [Example 4]”, in data set [1], the “k′rel” value is 1.23.
For the substance “N^εB29—N—(HOOC(CH2)16CO)—N(carboxyethyl)-CH2-para-C6H4CO] desB30 human insulin [Example 3]”, the “Receptor binding (% of human insulin)” value at human insulin receptor is listed as 15 % of human insulin. In addition, the “k′rel” value in data set [1] amounted to 2.03.
In the case of “N^εB29—[N—(HOOC(CH2)13CO)—N-(carboxyethyl)-CH2-para-C6H4CO] desB30 human insulin [Example 2]”, on human insulin receptor, the “Receptor binding (% of human insulin)” value is on record as 28 % of human insulin. Moreover, the “k′rel” value in data set [1] amounted to 0.81.
For the substance “N^εB29—[N—(HOOC(CH2)14CO)—N-(carboxyethyl)-para-C6H4CO] desB30 human insulin [Example 8]”, the “Receptor binding (% of human insulin)” value on human insulin receptor is 17 % of human insulin. In addition, in data set [1], the “k′rel” value was 1.08.
For “N^εB29—[N—HOOC(CH2)14CO)—N-(carboxethyl)-CH2-ortho C6H4CO] desB30 human insulin [Example 7]”, the “Receptor binding (% of human insulin)” value with human insulin receptor was 11 % of human insulin. The “k′rel” value in data set [1] is reported as 0.905.
For “N^εB29—[N—HOOC(CH2)14CO)—N-(carboxyethyl)-CH2-para-C6H4CO] desB30 human insulin [Example 1]”, the “Receptor binding (% of human insulin)” value at human insulin receptor is on record as 18 % of human insulin.
